Tests used:
KGF (hKGF) [1] = biological target: T1, KGF (hKGF) (Homo sapiens, UniProt P21781 P21781:32-194); assay: filter; biphasic, high affinity 43%; Kd2 2.55 nM; conditions: tags: Upstate Biotechnology; label: 32P
T1 sequence: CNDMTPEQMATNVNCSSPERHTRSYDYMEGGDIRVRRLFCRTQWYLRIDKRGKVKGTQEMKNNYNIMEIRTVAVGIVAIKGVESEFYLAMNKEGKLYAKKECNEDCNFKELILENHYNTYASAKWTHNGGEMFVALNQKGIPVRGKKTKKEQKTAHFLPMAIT

TGFβ1 [2] = biological target: T2, TGFβ1 (Homo sapiens, UniProt P01137 P01137:279-390); assay: filter; 37 C; cell IC50 210 nM; conditions: tags: Genentech; biotinylated version used in bead assay; chain copies: 2
T2 sequence (P01137 279-390, one chain of several): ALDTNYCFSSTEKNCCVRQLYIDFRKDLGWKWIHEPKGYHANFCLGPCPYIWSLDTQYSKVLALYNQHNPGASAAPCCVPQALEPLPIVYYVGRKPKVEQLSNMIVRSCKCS

TGFβ1 [3] = biological target: T2, TGFβ1; assay: cell_activity; conditions: tags: Genentech or R&D Systems; chain copies: 2
TGFβ1 [4] = biological target: T2, TGFβ1; assay: filter; 37 C; cell IC50 124 nM; conditions: tags: Genentech; biotinylated version used in bead assay; chain copies: 2
KGF (hKGF) [5] = biological target: T1, KGF (hKGF); assay: competition; PC-3 cells; 6.8 nM on NIH3T3/FGFR-2; 830 pM Balb/MK; conditions: tags: Upstate Biotechnology; pseudoknot
Description: (§1) PC-3 cells were plated in 24-well plates at about 10⁵ cells per well. Following growth for […], the cells were serum starved for 24 hours, washed two times with 500 μl of cold DPBS, and then incubated with 500 μl binding buffer (BB1; DPBS, 0.5 mM MgCl₂, 0.2% BSA. 0.02% sodium azide) containing various concentrations of ¹²⁵I-labeled KGF ranging from 0 to 0.8 nM. Following 3-3.5 hour incubation at 4° C., the binding mixes were aspirated and the well-adhered cells were washed two times with 1 ml BB1 and once with 1 ml BB1 supplemented with 0.5M NaCl. The remaining bound labeled hKGF was solubilized in 600 μl 0.5% SDS/0.1M NaOH and counted in a gamma counter (Beckmann). Nonspecific binding was determined in the presence of 100 fold molar excess of unlabeled hKGF. For competition assays, the labeled hKGF was kept constant at […], and varying concentrations of competitor molecules were included in the binding reactions ranging from 0-1,000 nM. Binding curves were fitted to the equation: […]
(§2) A subset of these ligands was tested on the NIH3T3/FGFR-2. In determining the Ki values, it was assumed that 3T3 cells have 500,000 binding sites per cell and PC-3 cells have 5,000 binding sites per cell.

KGF (hKGF) [6] = biological target: T1, KGF (hKGF); assay: competition; PC-3 cells; conditions: tags: Upstate Biotechnology
Description: as §1, §2

KGF (hKGF) [7] = biological target: T1, KGF (hKGF); assay: filter; biphasic, high affinity 37%; Kd2 3.25 nM; PC-3 Ki 0.16 nM; conditions: tags: Upstate Biotechnology; label: 32P; pseudoknot (predicted)
KGF (rat) [8] = biological target: T3, KGF (rat) (Rattus norvegicus, UniProt Q02195 Q02195:32-194); assay: cell_activity; Balb/MK DNA synthesis; conditions: tags: QED Advanced Research Technologies; pseudoknot
T3 sequence: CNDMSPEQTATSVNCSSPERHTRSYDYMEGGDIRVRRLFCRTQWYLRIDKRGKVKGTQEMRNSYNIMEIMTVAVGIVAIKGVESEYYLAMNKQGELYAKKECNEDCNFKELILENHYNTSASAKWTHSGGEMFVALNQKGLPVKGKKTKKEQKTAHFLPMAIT
Description: (§3) Balb/MK cells grown in Low Ca⁺⁺ EMEM with 10% FCS (dialyzed and heat inactivated) and 5 ng/ml rhEGF were trypsinized and resuspended in Low Ca⁺⁺ EMEM with 1% FCS (dialyzed and heat inactivated) and 0.5 ng/ml rhEGF and plated on 96 well fibronectin coated culture plates at 4-6×10⁴ cells per well in 100 μl total volume. Following overnight growth, the medium was replaced with Low Ca⁺⁺ EMEM without FCS or rhEGF and serum starved for about 30 hrs. […] Following over-night incubation, ³H-thymidine was added at 0.2 μCi/well and incubation continued for an additional 7-8 hrs. The extent of ³H-thymidine incorporation was determined by TCA precipitation and filtration through GFC filter disks.

KGF (hKGF) [9] = biological target: T1, KGF (hKGF); assay: cell_activity; Balb/MK mitogenic assay; conditions: tags: Upstate Biotechnology; pseudoknot
Description: as §3

KGF (rat) [10] = biological target: T3, KGF (rat); assay: filter; high affinity component; Kd2 70.0 nM; conditions: tags: QED Advanced Research Technologies; label: 32P; pseudoknot (predicted)
TGFβ1 [11] = biological target: T2, TGFβ1; assay: filter; specificity control; random RNA 10.4 nM; conditions: tags: Genentech; biotinylated version used in bead assay; chain copies: 2; label: 32P; pseudoknot (predicted)
EGF = EGF (Homo sapiens, UniProt P01133 P01133:971-1023); assay: filter; specificity control; random RNA 2000 nM; conditions: tags: Upstate Biotechnology; label: 32P; pseudoknot (predicted)
Sequence of EGF (P01133 971-1023, one chain of several): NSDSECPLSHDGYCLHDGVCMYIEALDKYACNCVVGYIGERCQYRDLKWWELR

PDGF-AB [12] = biological target: T4, PDGF-AB (Homo sapiens, UniProt P04085;P01127 P04085:87-211,P01127:82-190); assay: filter; specificity control; random RNA 22.0 nM; conditions: tags: R&D Systems, E. coli; label: 32P; pseudoknot (predicted)
T4 sequence (P01127 82-190, chain 2 of 2, other chains not shown): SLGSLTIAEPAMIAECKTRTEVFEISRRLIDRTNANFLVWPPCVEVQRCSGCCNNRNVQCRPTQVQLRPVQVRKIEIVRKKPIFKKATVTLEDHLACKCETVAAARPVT

bFGF = bFGF (Homo sapiens, UniProt P09038 P09038:143-288); assay: filter; specificity control; random RNA 0.0375 and 10.3 nM; conditions: tags: R&D Systems; label: 32P; pseudoknot (predicted)
Sequence of bFGF (P09038 143-288, one chain of several): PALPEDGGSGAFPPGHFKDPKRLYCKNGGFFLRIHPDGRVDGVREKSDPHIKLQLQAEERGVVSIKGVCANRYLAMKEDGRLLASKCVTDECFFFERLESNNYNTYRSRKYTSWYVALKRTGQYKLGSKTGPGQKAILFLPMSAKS

bFGF (Example 20) [13] = biological target: T5, bFGF (Example 20) (UniProt P09038 P09038:143-288); assay: truncated ligand from deletion analysis
T5 sequence (P09038 143-288, one chain of several): as above

KGF (hKGF) [14] = biological target: T1, KGF (hKGF); assay: filter; equimolar halves; high -, low -; conditions: tags: Upstate Biotechnology
Description: In an effort to identify shorter KGF ligands that retained binding, the binding activity of various deletions of the shortest truncate of ligand 14F, namely 14F3′T were tested. Deletions were tested in all the structural elements of the proposed pseudoknot structure. RNA transcripts containing 2′F pyrimidines and 2′OH purines were obtained by in vitro transcription using synthetic DNA templates. The activity of each ligand is shown by scoring for both the high (H) and low (L) affinity component of the 14F3′T binding curve with +(active) or −(not active). Truncates T35 and T36 represent two complementary halves of 14F3′T molecule and were additionally tested as an equimolar mixture. The structural elements of the proposed pseudoknot structure are separated by (1) and are indicated by symbols S1 (stem 1), S2 (stem 2), L1 (loop 1) and L3 (loop 3). The proposed pseudoknot structure for 14F3′T is a non-H-type pseudoknot and lacks L2 (loop 2). The complementary sequences forming S1 (S1 and S1′) and S2 (S2 and S2′) are marked by single and double underlines respectfully. In the tabulated sequences, deleted bases were replaced with periods (.). […] Deletions in loop 3 (L3), however, were tolerated as long as one copy of the RRYY box remained intact. The shortest ligand that retained activity is T22 which is a 43-mer. […]

PDGF-AB [15] = biological target: T4, PDGF-AB; assay: filter; substitution pattern compatible with high affinity; conditions: tags: R&D Systems, E. coli; chain copies: A/B chain dimer; three-way helix junction
TGFβ1 [16] = biological target: T2, TGFβ1; assay: filter; 3' boundary experiment; conditions: tags: Genentech or R&D Systems; chain copies: 2
KGF (hKGF) [17] = biological target: T1, KGF (hKGF); assay: competition; PC-3 cells; 10.6 nM partial on NIH3T3/FGFR-2; conditions: tags: Upstate Biotechnology
Description: as §1, §2

KGF (hKGF) [18] = biological target: T1, KGF (hKGF); assay: filter; DPBS, 37 C; PC-3 Ki […] nM; conditions: tags: Upstate Biotechnology; label: 32P
KGF (hKGF) [19] = biological target: T1, KGF (hKGF); assay: filter; biphasic, high affinity 28%; conditions: tags: Upstate Biotechnology; label: 32P
KGF (hKGF) [20] = biological target: T1, KGF (hKGF); assay: filter; biphasic, high affinity 33%; conditions: tags: Upstate Biotechnology; label: 32P
bFGF (Example 20) [21] = biological target: T5, bFGF (Example 20); assay: parent SELEX ligand
KGF (hKGF) [22] = biological target: T1, KGF (hKGF); assay: filter; second value 8.70 nM; conditions: tags: Upstate Biotechnology; label: 32P
KGF (hKGF) [23] = biological target: T1, KGF (hKGF); assay: competition; PC-3 cells; 2.7 nM on NIH3T3/FGFR-2; 92 pM Balb/MK; conditions: tags: Upstate Biotechnology; pseudoknot
Description: as §1, §2

KGF (hKGF) [24] = biological target: T1, KGF (hKGF); assay: filter; biphasic, high affinity 25-44%; text p221 gives 0.3-3 pM and 2-10 nM; PC-3 Ki 0.2 nM; conditions: tags: Upstate Biotechnology; label: 32P; pseudoknot (predicted)
PDGF-AB [25] = biological target: T4, PDGF-AB; assay: efficient photo-crosslinking at 308 nm, to Phe84 of B chain; conditions: tags: R&D Systems, E. coli; chain copies: A/B chain dimer

B1: 26F (ssRNA)
RNA: GGGAGGACGAUGCGGUCAAGCUUAACAGUCUGGCAAUGGCCAUUAUGGCGCCCCAGACGACUCGCCCGA
modifications: 2'-F pyrimidines
KGF (hKGF) [1]
  Kd: 0.23 nM

B2: lib8-9 (ssRNA)
RNA: GGGGGAGAACGCGGAUCCGCAAUCCCAGGCGCAUAGCUUCCGAGUAGACAGGAGGGAGGGGUGGAUGUGGCGUCUACUCGGCGUCGUGAAGCUUCGCUCUAGAUCUCCCUUUAGUGAGGGUUA
modifications: 2'-NH2 pyrimidines
TGFβ1 [2]
  Kd: 1.7 nM
TGFβ1 [3]
  IC50: 210 nM

B3: lib8-9* (ssRNA)
RNA: B2 RNA
modifications: 2'-NH2 U, 2'-F C
TGFβ1 [4]
  Kd: 2.8 nM

B4: 6F (ssRNA)
RNA: GGGAGGACGAUGCGGGAUCCUUUGUGGGCUCUUGUUGACCCCCUCGUUGUCCCCCCCAGACGACUCGCCCGA
modifications: 2'-F pyrimidines
KGF (hKGF) [5]
  Ki: 0.16 nM
KGF (hKGF) [6]; pseudoknot
  IC50: 4 nM
KGF (hKGF) [7]
  Kd: 0.05 nM

B5: 14F3'T (ssRNA)
RNA: GGGAGGACGAUGCGGUGGUCUCCCAAUUCUAAACUUUCUCCAUCGUAUC
modifications: 2'-F pyrimidines
KGF (rat) [8]
  Ki: 1.8 nM
KGF (hKGF) [9]
  Ki: 0.034 nM
KGF (rat) [10]
  Kd: 0.0041 nM
TGFβ1 [11]
  Kd: 98 nM
EGF
  Kd: 256 nM
PDGF-AB [12]
  Kd: 50 nM
bFGF
  Kd: 10 nM

B6: 21A-t (ssRNA)
RNA: GGUGUGUGGAAGACAGCGGGUGGUUC
modifications: 2'-NH2 pyrimidines
bFGF (Example 20) [13]
  binding result: binds

B7: T35/T36 equimolar (ssRNA)
RNA 1: GGUGGUCUCCCAAUUCUAUUCUCCAUCGUAUC
RNA 2: GGGAGGACGAUG
modifications: 2'-F pyrimidines
KGF (hKGF) [14]
  binding result: no binding

B8: 36t 2'-OMe/2'-F (mixed)
mixed: CAGGCUACGGCACGTAGAGCAUCACCATGATCCUG
modifications: 2'-OMe C8,C11,C25,C26,G9,G10,G17,G19,G35,A12,A24,A27,U34; 2'-F U6,U22,C23,C32,C33; 3'-3' idT
PDGF-AB [15]
  binding result: binds

B9: lib4-32 boundary (ssRNA)
RNA: GGGGGAGAACGCGGAUCCGGCAACCCCAGGCGCAUAGCUUCCGAGUAGACAGGCGGGAGGGGUGGAUGUGGCGUCACG
modifications: modified pyrimidines
TGFβ1 [16]
  binding result: binds

B10: 14N (ssRNA)
RNA: GGGAGGACGAUGCGGUCCAGGGAUUGAAGUGUCGGGGUAGGAACAUAAAGGCGGCCAGACGACUCGCCCGA
modifications: 2'-NH2 pyrimidines
KGF (hKGF) [17]
  Ki: 1.4 nM
KGF (hKGF) [6]
  IC50: 6 nM
KGF (hKGF) [18]
  Kd: 0.44 nM

B11: 13F (ssRNA)
RNA: GGGAGGACGAUGCGGCACCUUAGACCUGUCCUCCAAGCGUGAGUUGCUGUGGCCCAGACGACUCGCCCGA
modifications: 2'-F pyrimidines
KGF (hKGF) [6]
  IC50: 30 nM
KGF (hKGF) [19]
  Kd: 0.03 nM

B12: 15F (ssRNA)
RNA: GGGAGGACGAUGCGGUCAUGGUGUCUUUCCACAGCUCUUCCCAUGAUCGCCCGGCCAGACGACUCGCCCGA
modifications: 2'-F pyrimidines
KGF (hKGF) [6]
  IC50: 20 nM
KGF (hKGF) [20]
  Kd: 0.07 nM

B13: 21A (ssRNA)
RNA: GGGAGACAAGAAUAACGCUCAAGUAGACUAAUGUGUGGAAGACAGCGGGUGGUUCGACAGGAGGCUCACAACAGGC
modifications: 2'-NH2 pyrimidines
bFGF (Example 20) [21]
  binding result: binds

B14: 20F (ssRNA)
RNA: GGGAGGACGAUGCGGAGUAUUCCAGCCUGGAUUCAUAGUCAGUGCUCUCCGUGCCCAGACGACUCGCCCGA
modifications: 2'-F pyrimidines
KGF (hKGF) [22]
  Kd: 2.05 nM

B15: 14F (ssRNA)
RNA: GGGAGGACGAUGCGGUGGUCUCCCAAUUCUAAACUUUCUCCAUCGUAUCUGGGCCAGACGACUCGCCCGA
modifications: 2'-F pyrimidines
KGF (hKGF) [23]
  Ki: 0.2 nM
KGF (hKGF) [6]; pseudoknot
  IC50: 10 nM
KGF (hKGF) [24]
  Kd: 0.0134 nM

B16: 20t-I4 (ssDNA)
DNA: TGGGAGGGCGCGTTCTTCGTGGTTACTTTTAGTCCCG
modifications: 5-iodo-dU at 24
PDGF-AB [25]
  binding result: binds
